Data from US20230110249A1 (University of California, published 2023).
One block for each binder: values may come before it.

Tests used:
[1] = target: T1, human ROR1 protein (construct not stated) (human, UniProt Q01973 30-406, limits assumed); assay: method not stated (binding affinity; FIG. 12C)
T1 construct: also called hROR1

[2] = target: T1, human ROR1 protein (construct not …); assay: method not stated (FIG. 12)
[3] = target: recombinant human ROR1 protein with the mouse amino acid residue at position 138 (human, UniProt Q01973 30-406, limits assumed); assay: immunoblot after non-denaturing PAGE (FIG. 10)
recombinant human ROR1 protein with the mouse amino acid residue at position 138, sequence (Q01973 30-406 E138K limits assumed): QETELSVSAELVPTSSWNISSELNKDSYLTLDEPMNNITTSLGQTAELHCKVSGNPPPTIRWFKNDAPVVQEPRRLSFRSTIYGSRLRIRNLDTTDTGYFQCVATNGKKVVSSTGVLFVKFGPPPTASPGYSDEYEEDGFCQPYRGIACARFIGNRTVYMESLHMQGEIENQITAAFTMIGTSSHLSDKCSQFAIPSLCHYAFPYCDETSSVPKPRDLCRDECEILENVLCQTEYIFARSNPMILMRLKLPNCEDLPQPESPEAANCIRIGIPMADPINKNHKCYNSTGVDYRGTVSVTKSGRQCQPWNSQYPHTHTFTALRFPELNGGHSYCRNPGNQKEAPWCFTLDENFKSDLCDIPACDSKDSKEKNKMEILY
Excerpt: Constructs depicted in FIG. 6 were used to select high affinity recombinant antibodies. […] Human and chimeric ROR1-ex constructs were transfected into 293 cells. This allowed for production of recombinant human-mouse chimeric ROR1 proteins that could be size separated in a non-denaturing PAGE gel or SDS PAGE gel for immunoblot analysis with different anti-ROR1 mAb. […] The full human extracellular domain is provided on the far left lane of either gel (FIG. 11).

T1 sequence (Q01973 30-406 limits assumed): as the sequence (Q01973 30-406 E138K limits assumed) above, with K109E counted along it

- Kd [1]: 41 nM
B1: anti-ROR1 monoclonal antibody D10 (antibody, V domains shown)
VH: QVQLKESGPGLVAPSQTLSITCTVSGFSLTSYGVHWVRQPPGKGLEWLGVIWAGGFTNYNSALKSRLSISKDNSKSQVLLKMTSLQTDDTAMYYCARRGSSYSMDYWGQGTSVIVSS
VL: EIVLSQSPAITAASLGQKVTITCSASSNVSYIHWYQQRSGTSPRPWIYEISKLASGVPVRFSGSGSGTSYSLTISSMEAEDAAIYYCQQWNYPLITFGSGTKLEIQ

- fold higher binding affinity than D10 [2]: 50 fold
- binding result [3]: no binding
- Kd [1]: 0.8 nM
B2: anti-human ROR1 antibody 99961 (antibody, V domains shown)
VH: EIQLQQSGPVLVKPGASVKVSCKASGYAFTAYNIHWVRQSHGKRLEWIGSFDPYDGGSSYNQKFKDKATLTVDKSSTTAYMHLNSLTSEDSAVYYCARGWYYFDYWGHGTTLTVSS
VL: DVQITQSPSYLAASPGETITINCRASKSISKYLAWYQEKPGKTNKLLIYSGSTLQSGIPSRFRGSGSGTDFTLTISSLEPEDFAMYYCQQHDESPYTFGEGTKLEIK
notes: also called Ab9991
